In article PMC5773694 one finds Km of STYK for OLE1 as substrate, in vitro kinase assay and Km of STYK for CAL4 as substrate, in vitro kinase assay data, which are given here for 2 molecules.

For this assay, the target named is T1, Arabidopsis serine/threonine/tyrosine protein kinase (STYK, At2g24360) (Arabidopsis thaliana) (UniProt Q9ZQ31).
T1 sequence: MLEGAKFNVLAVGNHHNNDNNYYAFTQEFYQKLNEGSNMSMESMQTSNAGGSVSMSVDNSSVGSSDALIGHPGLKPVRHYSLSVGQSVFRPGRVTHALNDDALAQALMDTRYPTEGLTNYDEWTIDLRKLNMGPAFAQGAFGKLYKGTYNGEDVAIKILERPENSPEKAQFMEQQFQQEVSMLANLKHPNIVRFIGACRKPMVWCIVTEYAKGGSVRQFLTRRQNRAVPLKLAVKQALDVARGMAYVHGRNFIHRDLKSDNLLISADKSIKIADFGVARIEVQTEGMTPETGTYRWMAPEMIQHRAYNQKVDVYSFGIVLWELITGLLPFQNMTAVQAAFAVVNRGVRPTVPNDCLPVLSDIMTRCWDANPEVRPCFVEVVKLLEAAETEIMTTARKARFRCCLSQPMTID

B1: Arabidopsis oleosin 1 (OLE1, At4g25140), oleosin 18.5 kDa (natural protein)
chain: MADTARGTHHDIIGRDQYPMMGRDRDQYQMSGRGSDYSKSRQIAKAATAVTAGGSLLVLSSLTLVGTVIALTVATPLLVIFSPILVPALITVALLITGFLSSGGFGIAAITVFSWIYKYATGEHPQGSDKLDSARMKLGSKAQDLKDRAQYYGQQHTGGEHDRDRTRGGQHTT
As to B1, the Km of STYK for OLE1 as substrate, in vitro kinase assay is 0.966 µM.

B2: Arabidopsis caleosin 4 (CAL4, At1g70670), probable peroxygenase 4 (natural protein)
chain: MASSISTGVKFVPEEDNFLQRHVAFFDRNKDGIVYPSETFQGFRAIGCGYLLSAVASVFINIGLSSKTRPGKGFSIWFPIEVKNIHLAKHGSDSGVYDKDGRFVASKFEEIFTKHAHTHRDALTNEELKQLLKANKEPNDRKGWLAGYTEWKVLHYLCKDKNGLLHKDTVRAAYDGSLFEKLEKQRSSKTSKKHP
For the molecule B2, the Km of STYK for CAL4 as substrate, in vitro kinase assay stood at 0.997 µM.
